Results: the supplement of paper PMC12636428

Test system: Saccharomyces cerevisiae
Test: transcriptional activation domain activity (GFP:mCherry ratio, weighted mean of sorted bins, harmonized to initial dataset scale) (arbitrary fluorescence ratio units); higher = stronger transcriptional activation
Settings: beta-estradiol 1 µM; induction time 4 h
How it was run: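 The listed activation activity is a read-weighted mean of bin median fluorescence, averaged across barcodes and linearly mapped onto the initial dataset scale. Barcoded tiles, fused to an estradiol-inducible synthetic transcription factor, were integrated at URA3 in yeast diploids bearing a GFP reporter. Cells were held 4 hours at 30 °C in SC with 1 uM beta-estradiol, sorted into 8 GFP:mCherry bins, and sequenced, and tiles with fewer than 50 reads were excluded.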

Sequence	transcriptional activation domain activity
MHSPHNCRVSKHFVIFCFFFFFFLFCRPLPLLSNLILTLFFSSFFLLGLFGVL	64700
MHSSGWLWANISLLFPRLFFLTFFSYLLCDLAFRFDRLVCFLWLLFFQWSFII	52200
MHSVTAALRSLSLAGRRSLSTSAPRWEQAAAEAVASTSTWTPQTQRTGVLARK	14900
MHTHAVTRSLFLYFLLNFFFIFFLLLEGFGLLLDFSFFFVLFRLDSLSLLFVF	76000
MHTLLTILQTLHILVIFNTIVYPVCLFEICCFAWYFIPFAFRFLCLCFFFLFL	55000
MHTLVLDFDEDVVEQALRLFNLNSRALTTFLSLLVMEYGIALGPMRHRWITSP	18100
MHTPFLFLPPCPSRTRLLLFFSLILFLLVLVPAPCHAQPWNLGTLFFIFWLAS	52700
MHTSRAAWIHSKPADKAEAVAPHPHIAESGVGHSSHVGTHPKLSGDPNSPWRE	45900
MHVAYFMVLFFFIVLIDAHLVVPYIFDVELLTYMLNDAFKFDLFGCFCKVIVI	68900
MHVYVYIIIYNNIWYCMVYSINIHIFVNNYYLLRLLAIYYSYCFIVLLFIMFF	43500
MHYIGGYLVLFYFFLFLFFFYFFFFSPFFYFLPFLFFLFFSIPYFFFFAPFVS	39700
MHYLGLFRALDYNASSLIGVVNIDYTTVIYLIIEELIILLLTLAKRNVATQYA	61800
MHYRSAILCHSFILYCLVVVLGVFFKVILVLIYNRVCVPLIVLCLFSYSLSLV	59100
MHYRYIAGFFFVHTFSCGQGLKDSNLILQCVPLYPQLHPFFLIFLHFFVFLSL	70600
MHYTTLLYFIYISFNFFTLILILFFNPFFFVSILSFSFLLFLFCCCSISEVVV	64300
MHYVFLPFFFFFLLFFLLFPLFFFFLPSFHLLLFLSSSLLLSFLSLAPATSHH	38800
MIASHPSPFLSRLFGLPLLFFSSFIEVSLFFLFFLPSLRFLFFFFPSLALFFF	42700
MIASSPGGILCGILLFLLFFLLPCDLPLPFVSCFFSLFSPFLMFLFFLPYFFS	40700
MIAVFFYYFLLFFYITCEFPVLCCGSLFFFFFFFFCFCDIYCISFCLLAHYHY	44300
MICCDLSFGGKLFCKQLFLLLLVFCAILHYNWRWVYSDVLVMILMLAMIISLA	43600
MIDILFFVLFHFFDVLFFSLFCLFLCIILFSSLTFLIYYFFFFFLFFPFFGLF	36500

Sequence	transcriptional activation domain activity
MIELCLWVFSLLVLPRFGLRNFEVRINVALRELLLTITWGRLAIHVSLLRLVV	49000
MIEMMAFRIALGFVGGLGLDGVWCGFFFPFKFVVFSFLHTLSISLGLDFFFLL	91700
MIERCLMMGPSLGLYVFDLFLLEVGYLAFYAHFNLFSMFAYVFPFIPLVGIRC	41500
MIFFLLFFFSFHQVYFSLFSFRRIFLLSFLLLLLPFLLFACVLFSLLTFCPFL	41900
MIFFLPLVFTSFFFIFFYMYYTVWTLHLSFVKSLEACMNPWIWELYGSTFIHL	60000
MIFIYMIFIYVIFLFLYFYIFFYFLFFIFIIFICCYFIFLYYLFSYFPFFLFY	43500
MIFMLDANPSYGTLFILLPYLLSLIIPVLITSVLLSDIFFFFISYCMLCLSCC	52200
MIFMPSCCGFFISMFTTYGTLFSIRGILTYNPFFLCTFLFPFLFHGVPCLFLF	49700
MIFSLFLSYNPLFYFIYYYLFYFSCFLLLILIAIITIIAILLCILEFHVPKSL	51600
MIFSNLLVLSLLCSLFLFFYFFFYVLCFFLFAYTLSRSLYITILGFFDLVIVF	66200
MIGDGGRVFRVHSSLSLSFVIFFFSVLLFFFCPFSFVFYCIYAFLVPGLVVLV	35200
MIGHDYLLVVVPIPILSLLHVSLLPYFFYFFVLVLVFLYLFLLRFLSFLLLLL	65700
MIGHWFVLLNLISNWIVLSSFSILFYIYIYMPLYCHYAPFIFMLFLLYIPLLI	48800
MIGVCWVGGGIGVWCFCELTSSSFYPIDLVDFFFSFFCFLNFLLAFDFGLLLA	57000
MIGVVCALYLFFFPSFFLLFFFSTLLDDDTLIIYKFFLLWESWFVAFILFFYL	24900
MIHCMLLVGSTCPFFSLFLIAYFYDAIYDLAQFDMWSLLLCIYWDISPIFLFP	48100
MIHGLQSYNLSFLIFFLFLLSSLFVLFVMLSKFAFVLFVDTLYCLIPYVFLFF	42500
MIHLLQYAYLFLFLLMLYDTLCHAILFFLTLNLTNWWYPIPFNMILHFIVPLF	45300
MIHSAIIAWYCVFGLVFLLIVICIFHQFSSHRSSPWYFIQNWTRAFGFLSYIL	66700
MIHSIAVYIMLISSTLTHSLISLLFYILSLYVGIFYTYHILFKVLFICQWFLF	76200
MIHVPLIIFYIILNLFVAYLCLLIFSYYYRMIAQLLYNQCMIQMQPIIHQIKE	53500

Sequence	transcriptional activation domain activity
MIHYPPLLQSPRLVCTLLCSVDVIWLWFNHLFTLFITWRGVLFFLSFFTLLFF	51600
MIIASLVPGGGIGFFYFVFWSLLWLRLFLAFLSIMGSFLCLFTCYMPSFLFFS	33400
MIIFFFFFFLLCHWINTGIIFHVLDLMVKFLFFIFVDQQKKLSLLLFIHFAWL	54700
MIIGMWLFCHVGSSFSVYHMFPLLYFRLLLCYLVFWSCFLLTFSKVSFSFLFA	54400
MIIIDIFLSIYMILSYLYLHLFIFHVHMNPSYFIYFLAFSVKEIFIVSWFFFI	57300
MIIIIIIIMGNRFMMMSFLFAFFSLFFFLMKFFLSFSFFLFLSFLLIMFAISL	62100
MIILGRMGYSHVLLLPFFNSICFSFLFLPHSLCCLHFNSFYTYFLLLPHPHLF	61900
MIISAVYITYFFSLSYLFFPLYLFIVYPFFSFLFNLLAKDTFIVDTYIIVFFA	50600
MIITFYTFFSFFPFFISFSLSLFSLRYFFFFFSFLSLSFFFFLFFLILIHLFL	14400
MIITLSRLFFFFFFFPVRFLAFLNHFFLFFFFFWLRWGLSVCFFILSWPGEKS	46400
MIIVFVFFSLFFFLPFLFPLAFFFLFLFPFFLPSYFPSYSLRCSYEGRPSFFF	47100
MIIVLLVKVVVFNLMCKCLMVNVGRCFGEIVSCTFYFWKHILFYYLRSVVTRL	37700
MIIVRSIFYCLGLIALLEFMLIRVASAFAISSLLTNLAYNKPFFLTYLSCATH	67100
MIIYYIGSIFWCLGNLQVGGFFGFDGIWSYCIFWRNWVRDVFGLSVLIGVVNY	44900
MIKFSLLIFLIVFILDYLIFFCFFFFFLFFYFFIQFTLFMVCGGDLIYGFING	43200
MIKKISFFLYIFALRSSFFLFLFVLYFFFPLFFFFFFSFSFFFLLLVSVATLE	12200
MIKRLRWRRKIERNLPEFRLIPFLQRLLWLLLLLQFLLHLLHPPILCLHRLRY	50700
MILARMLHIYIYKEIVDLTNVCIKCIKIISSEVRRVVLFNLDQTYETIPYIVE	66600
MILFFFAHRGLFLVYSASFCLCCDCLYFFLVYTFFFTLHNPFFLVPLFFSIIL	62900
